Results reported in patent publication US20250197493A1 (Eli Lilly, published 2025).

Columns and labels:
Human LAG-3 ECD-His [1] = molecular target: T1, Human LAG-3 ECD-His (human, UniProt P18627 23-449); test: SPR (Biacore), antibody captured, 25° C.
T1 construct: It was the analyte in SPR and the antigen in HDX-MS; also called human LAG-3 soluble extracellular domain (ECD); human LAG-3-His ECD
T1 sequence: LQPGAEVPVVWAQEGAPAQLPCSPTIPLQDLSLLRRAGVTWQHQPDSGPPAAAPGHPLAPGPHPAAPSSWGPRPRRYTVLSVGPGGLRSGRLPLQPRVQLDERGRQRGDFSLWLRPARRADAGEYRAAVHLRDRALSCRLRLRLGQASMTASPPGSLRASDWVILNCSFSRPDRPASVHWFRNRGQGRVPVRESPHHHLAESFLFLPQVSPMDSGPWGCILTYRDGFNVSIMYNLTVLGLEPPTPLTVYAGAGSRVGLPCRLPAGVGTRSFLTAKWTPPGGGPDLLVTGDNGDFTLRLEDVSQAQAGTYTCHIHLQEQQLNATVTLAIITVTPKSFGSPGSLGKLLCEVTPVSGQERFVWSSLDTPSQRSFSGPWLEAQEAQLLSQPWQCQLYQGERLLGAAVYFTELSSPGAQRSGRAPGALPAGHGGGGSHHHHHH
Protocol: (§1) Surface Plasmon Resonance (SPR) at 37° C. is performed to determine the binding kinetics and affinity of LAG-3 antibodies to human LAG-3 and/or cynomolgus monkey LAG-3. A Biacore® T200 (Cytiva, Marlborough, MA) was used to measure the binding kinetics and affinities of Antibody A to human LAG-3 soluble extracellular domain (ECD) SEQ ID NO: 59) and to cynomolgus LAG-3 ECD (ACROBiosystems, Cat #LA3-C82H3; SEQ ID NO: 59) by surface plasmon resonance. Samples were diluted in HBS-EP+ (10 mM Hepes, 150 mM NaCl, 3 mM EDTA, 0.05% Tween-20, pH 7.6) (Teknova Cat #H8022) with 5 g/L of BSA (Jackson ImmunoResearch Cat #001-000-161) running buffer. PrismA Series S Sensor chip (Cat #29650263) is purchased from Cytiva.
(§2) Binding was evaluated using multi-cycle kinetics by an antibody capture method. Each cycle was performed at either 37° C. or 25° C. at a flow rate of 10 μL/min for antibody capture to the PrismA chip and 100 μL/min for analyte association (with 120 sec contact time) and dissociation (900 sec). Each cycle consisted of the following steps: injection of antibody at 1 μg/mL in HBS-EP+ targeting Rmax values of 60 RU on flow cell, injection of analyte in HBS-EP+ (concentration range of 500 nM to 0.25 nM by two-fold serial dilution for human LAG-3-His ECD (SEQ ID NO: 59) followed by 900-second dissociation phase, and regeneration using 10 μL of 10 mM glycine hydrochloride, pH 1.5 over a 60-second contact time utilizing a 10 μL/min flow rate. All analyte concentrations were determined utilizing monomeric molecular weight (MW) values. Association rates (kₒₙ) and dissociation rates (koff) for LAG-3-ECD were evaluated using double referencing by flow-cell one reference subtraction in addition to 0 nM blank subtraction and fit to “1:1 (Langmuir) binding” model in the BIAevaluation software version 4.1. The dissociation constant (KD) was calculated from the binding kinetics according to the relationship KD=Koff/Kₒₙ. Stoichiometry=[RUₘₐₓ/RUcaptured]/[MWanalyte/MWantibody] where MW_{Antibody A} is 150 kDa. Values are reported as mean±standard deviation.

Cynomolgus LAG-3 ECD-His [2] = molecular target: T2, Cynomolgus LAG-3 ECD-His (cynomolgus monkey); test: SPR (Biacore), antibody captured, 25° C.
T2 construct: Bought protein (ACROBiosystems); also called ACROBiosystems Cat #LA3-C82H3
T2 chain: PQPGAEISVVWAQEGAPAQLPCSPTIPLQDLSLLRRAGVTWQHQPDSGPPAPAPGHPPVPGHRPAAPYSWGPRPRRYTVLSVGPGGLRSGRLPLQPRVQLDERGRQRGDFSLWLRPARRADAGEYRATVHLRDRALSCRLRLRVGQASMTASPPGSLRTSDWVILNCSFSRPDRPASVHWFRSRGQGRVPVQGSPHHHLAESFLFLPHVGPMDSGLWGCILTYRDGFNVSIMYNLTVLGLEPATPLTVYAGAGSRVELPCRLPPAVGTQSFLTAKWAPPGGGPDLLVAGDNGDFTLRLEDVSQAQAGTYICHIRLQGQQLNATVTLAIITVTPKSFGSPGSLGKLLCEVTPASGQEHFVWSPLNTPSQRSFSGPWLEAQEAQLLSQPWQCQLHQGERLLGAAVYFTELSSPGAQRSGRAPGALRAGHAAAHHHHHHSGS
Protocol: as §1, §2

Human LAG-3 ECD-His [3] = molecular target: T1, Human LAG-3 ECD-His; test: SPR (Biacore), antibody captured, 37° C.
Protocol: as §1, §2

Cynomolgus LAG-3 ECD-His [4] = molecular target: T2, Cynomolgus LAG-3 ECD-His; test: SPR (Biacore), antibody captured, 37° C.
Protocol: as §1, §2

[5] = molecular target: T3, cell membrane-expressed human LAG-3 (human, UniProt P18627 23-525); test: flow cytometry, SEB-activated human PBMCs, CD4 T cells, percent of cells bound
T3 construct: also called cell surface human LAG-3; hLAG-3
T3 sequence: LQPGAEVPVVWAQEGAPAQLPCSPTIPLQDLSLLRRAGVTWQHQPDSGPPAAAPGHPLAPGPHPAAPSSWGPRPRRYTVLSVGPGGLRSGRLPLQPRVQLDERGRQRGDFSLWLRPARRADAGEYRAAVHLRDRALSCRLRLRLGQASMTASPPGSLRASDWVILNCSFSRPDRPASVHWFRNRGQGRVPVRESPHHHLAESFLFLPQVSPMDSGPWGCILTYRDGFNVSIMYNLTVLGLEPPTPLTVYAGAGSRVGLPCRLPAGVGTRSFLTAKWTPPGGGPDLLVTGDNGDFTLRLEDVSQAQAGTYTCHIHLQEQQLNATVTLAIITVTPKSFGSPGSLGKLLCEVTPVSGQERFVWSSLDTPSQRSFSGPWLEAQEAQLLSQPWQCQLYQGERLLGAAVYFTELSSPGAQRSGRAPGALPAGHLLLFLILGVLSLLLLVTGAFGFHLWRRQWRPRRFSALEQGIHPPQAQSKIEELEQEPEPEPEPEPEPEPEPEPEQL
Protocol: (§3) Cells were incubated with a 12 point, 4-fold serial dilutions of Antibody A or Isotype hG1, starting at 100 μg/mL, in PBS+2% FBS for 30 minutes at 4° C. The samples were washed and stained with 1 μg/mL Alexa Fluor 647 AffiniPure F (ab′) 2 Fragment Goat Anti-Human IgG, Fcy fragment specific (Jackson Immuno Research 109-606-098) in PBS+2% FBS for 30 minutes at 4° C. After washing thoroughly human samples were stained with CD3 Biolegend #300424, CD4 Biolegend #300512, CD8 Biolegend #301006, PD-1 Biolegend 329906, non-competing LAG3 418611 conjugated in house BN20-2739-10, Live/Dead Near IR Invitrogen L34975A, CD19 Biolegend 302218, CD33 Biolegend 366614, and CD56 Biolegend 362512 in PBS+2% FBS for 30 minutes at 4° C. Cyno samples were stained with CD3 BD 557917, CD4 BD 566910, CD8 BD 557746, PD-1 Biolegend 329906, non-competing LAG3 418611 conjugated in house BN20-2739-10, and Live/Dead Near IR Invitrogen L34975A in PBS+2% FBS for 30 minutes at 4° C. Cells were washed and processed on a BioRad ZE5 cytometer and data was analyzed with FlowJo software (BD Biosciences). Percent of cells bound by the respective antibody is quantified and graphed with Prism (Graphpad, San Diego, CA).

[6] = molecular target: T3, cell membrane-expressed human LAG-3; test: flow cytometry, SEB-activated human PBMCs, CD8 T cells, percent of cells bound
Protocol: as §3

[7] = molecular target: T4, cell membrane-expressed cynomolgus LAG-3 (cynomolgus monkey); test: flow cytometry, SEB-activated cynomolgus PBMCs, CD4 T cells, percent of cells bound
T4 construct: whole, on cells; also called cell surface cynomolgus monkey LAG-3
Protocol: as §3

[8] = molecular target: T4, cell membrane-expressed cynomolgus LAG-3; test: flow cytometry, SEB-activated cynomolgus PBMCs, CD8 T cells, percent of cells bound
Protocol: as §3

B1: Antibody A (antibody, human IgG1, kappa, V domains shown)
VH: QVQLQESGPGLVKPSQTLSLTCTVSGGSISSGGYYWSWIRQHPGKGLEWIGYIYYSGITYYNPSLKSRVTISVDTSKNQFSLKLSSVTAADTAVYYCARSAVTTPFDYWGQGTLVTVSS
VL: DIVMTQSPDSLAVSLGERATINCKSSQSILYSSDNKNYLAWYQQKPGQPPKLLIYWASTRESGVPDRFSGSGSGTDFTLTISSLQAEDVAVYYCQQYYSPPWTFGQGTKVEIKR
notes: Human IgG1 heavy chain, kappa light chain; also called anti-human LAG-3 agonist antibody
Question: What does the source list for B1?
Answer: Kd (Human LAG-3 ECD-His [1]): 0.14 nM; koff (Human LAG-3 ECD-His [1]): 0.0012 s⁻¹; kon (Human LAG-3 ECD-His [1]): 8.3e+06 M⁻¹ s⁻¹; Kd (Cynomolgus LAG-3 ECD-His [2]): 0.038 nM; koff (Cynomolgus LAG-3 ECD-His [2]): 0.00015 s⁻¹; kon (Cynomolgus LAG-3 ECD-His [2]): 3.9e+06 M⁻¹ s⁻¹; Kd (Human LAG-3 ECD-His [3]): 0.064 nM; koff (Human LAG-3 ECD-His [3]): 0.0013 s⁻¹; kon (Human LAG-3 ECD-His [3]): 2.1e+07 M⁻¹ s⁻¹; Kd (Cynomolgus LAG-3 ECD-His [4]): 0.13 nM; koff (Cynomolgus LAG-3 ECD-His [4]): 0.00035 s⁻¹; kon (Cynomolgus LAG-3 ECD-His [4]): 2.7e+06 M⁻¹ s⁻¹; EC50 [5]: 0.0156 µg/mL; EC50 [6]: 0.0155 µg/mL; EC50 [7]: 0.857 µg/mL; EC50 [8]: 0.183 µg/mL
